{"source": "paper PMC10893412", "about": "“Genetic and Biochemical Characterization of AXC-2 from Achromobacter ruhlandii” (Pathogens, 2024)", "test_in_all_cases": "purified protein", "details_in_all_cases": "25 mM sodium phosphate pH 7.5, 25 °C", "key": {"[1]": {"test_system": "O=C(Cc1cccs1)N[C@@H]1C(=O)N2C(C(=O)O)=C(/C=C/c3ccc([N+](=O)[O-])cc3[N+](=O)[O-])CS[C@H]12", "format": "biochemical, Achromobacter ruhlandii", "excerpt": "(§1) UV/Vis spectrophotometric hydrolysis, steady state on AXC-2"}, "[2]": {"test_system": "CC1(C)S[C@@H]2[C@H](NC(=O)[C@H](N)c3ccccc3)C(=O)N2[C@H]1C(=O)O", "format": "biochemical, Achromobacter ruhlandii", "excerpt": "as §1"}, "[3]": {"test_system": "CC1(C)S[C@@H]2[C@H](NC(=O)Cc3ccccc3)C(=O)N2[C@H]1C(=O)O", "format": "biochemical, Achromobacter ruhlandii", "excerpt": "as §1"}, "[4]": {"test_system": "CO/N=C(\\C(=O)N[C@@H]1C(=O)N2C(C(=O)[O-])=C(C[N+]3(C)CCCC3)CS[C@H]12)c1csc(N)n1", "format": "biochemical, Achromobacter ruhlandii", "excerpt": "as §1"}, "[5]": {"test_system": "C[C@@H](O)[C@H]1C(=O)N2C(C(=O)O)=C(SCCN=CN)C[C@H]12", "format": "biochemical, Achromobacter ruhlandii", "excerpt": "as §1"}, "[6]": {"test_system": "C[C@@H](O)[C@H]1C(=O)N2C(C(=O)O)=C(S[C@@H]3CN[C@H](C(=O)N(C)C)C3)[C@H](C)[C@H]12", "format": "biochemical, Achromobacter ruhlandii", "excerpt": "as §1"}, "[7]": {"test_system": "CO/N=C(\\C(=O)N[C@@H]1C(=O)N2C(C(=O)O)=C(CSc3nc(=O)c(=O)[nH]n3C)CS[C@H]12)c1csc(N)n1", "format": "biochemical, Achromobacter ruhlandii", "excerpt": "as §1"}, "[8]": {"test_system": "CC1=C(C(=O)O)N2C(=O)[C@@H](NC(=O)[C@H](N)c3ccccc3)[C@H]2SC1"}}}
{"substance": "AXC-2 (Achromobacter ruhlandii)", "values": [{"measurement": "Km", "setting": "[1]", "value": "202 ± 24", "unit": "µM"}, {"measurement": "kcat", "setting": "[1]", "value": "40 ± 3", "unit": "s⁻¹"}, {"measurement": "kcat/Km", "setting": "[1]", "value": "200000 ± 40000", "unit": "M⁻¹ s⁻¹"}, {"measurement": "Km", "setting": "[2]", "value": "344 ± 14", "unit": "µM"}, {"measurement": "kcat", "setting": "[2]", "value": "62 ± 5", "unit": "s⁻¹"}, {"measurement": "kcat/Km", "setting": "[2]", "value": "180000 ± 20000", "unit": "M⁻¹ s⁻¹"}, {"measurement": "Km", "setting": "[3]", "value": "1297 ± 409", "unit": "µM"}, {"measurement": "kcat", "setting": "[3]", "value": "125 ± 28", "unit": "s⁻¹"}, {"measurement": "kcat/Km", "setting": "[3]", "value": "100000 ± 50000", "unit": "M⁻¹ s⁻¹"}, {"measurement": "Km", "setting": "[4]", "value": "872 ± 254", "unit": "µM"}, {"measurement": "kcat", "setting": "[4]", "value": "0.29 ± 0.07", "unit": "s⁻¹"}, {"measurement": "kcat/Km", "setting": "[4]", "value": "300 ± 100", "unit": "M⁻¹ s⁻¹"}, {"measurement": "Km", "setting": "[5]", "value": "6.3 ± 0.8", "unit": "µM"}, {"measurement": "kcat", "setting": "[5]", "value": "0.0364 ± 0.0009", "unit": "s⁻¹"}, {"measurement": "kcat/Km", "setting": "[5]", "value": "5800 ± 900", "unit": "M⁻¹ s⁻¹"}, {"measurement": "Km", "setting": "[6]", "value": "8 ± 1", "unit": "µM"}, {"measurement": "kcat", "setting": "[6]", "value": "0.051 ± 0.002", "unit": "s⁻¹"}, {"measurement": "kcat/Km", "setting": "[6]", "value": "7000 ± 1000", "unit": "M⁻¹ s⁻¹"}, {"measurement": "Km", "setting": "[7]", "value": "59 ± 6", "unit": "µM"}, {"measurement": "kcat", "setting": "[7]", "value": "5.5 ± 0.3", "unit": "s⁻¹"}, {"measurement": "kcat/Km", "setting": "[7]", "value": "90000 ± 10000", "unit": "M⁻¹ s⁻¹"}, {"measurement": "Km", "setting": "[8]", "value": "74 ± 14", "unit": "µM"}, {"measurement": "kcat", "setting": "[8]", "value": 16, "unit": "s⁻¹"}, {"measurement": "kcat/Km", "setting": "[8]", "value": 220000, "unit": "M⁻¹ s⁻¹"}]}
